Assays:
SHP2-C SH2 = assay: SH2 binding enrichment of the phosphorylated peptide, bacterial display (enrichment ratio); higher = better substrate or ligand; peptides without Tyr show the background
c-Src SH2 = assay: as above
Grb2 SH2 = Grb2 SH2 (UniProt P62993); assay: as above
c-Src = assay: phosphorylation enrichment, bacterial display (enrichment ratio); higher = better substrate or ligand; peptides without Tyr show the background
FGFR1 = FGFR1 (UniProt P11362); assay: as above
Fyn = Fyn (UniProt P06241); assay: as above
c-Abl (mouse) = assay: as above
AncSZ = assay: as above
EPHB1 = EPHB1 (UniProt P54762); assay: as above
Fer (mouse) = assay: as above
MERTK = MERTK (UniProt Q12866); assay: as above
FGFR3 = FGFR3 (UniProt P22607); assay: as above
EPHB2 = EPHB2 (UniProt P29323); assay: as above
Jak2 = Jak2 (UniProt O60674); assay: as above
Hck = Hck (UniProt P08631); assay: as above
Fes = Fes (UniProt P07332); assay: as above
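Wherever SH2 binding enrichment of the phosphorylated peptide, bacterial display is given: peptide library displayed on the E. coli surface as eCPX fusions, selected cells deep-sequenced, score is each peptide's frequency after selection divided by its frequency in the input.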
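Wherever phosphorylation enrichment, bacterial display is given: 11-residue human phosphosite peptides and single-mutation variants displayed on the E. coli surface, counted by deep sequencing, each peptide's frequency after selection divided by its frequency in the unselected input library; frequency after pTyr selection over input frequency; kinase dosed for 20-30% of maximal phosphorylation in three min.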

Chain of Grb2 SH2 (P62993 whole entry, looked up): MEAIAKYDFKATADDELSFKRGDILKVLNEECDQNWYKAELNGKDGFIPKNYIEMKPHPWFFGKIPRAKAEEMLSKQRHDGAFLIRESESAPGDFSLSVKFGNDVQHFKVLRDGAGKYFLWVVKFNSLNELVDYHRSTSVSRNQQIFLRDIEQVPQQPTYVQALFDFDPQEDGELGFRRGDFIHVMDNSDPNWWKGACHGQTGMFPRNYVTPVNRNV
Chain of FGFR1 (P11362 whole entry, looked up): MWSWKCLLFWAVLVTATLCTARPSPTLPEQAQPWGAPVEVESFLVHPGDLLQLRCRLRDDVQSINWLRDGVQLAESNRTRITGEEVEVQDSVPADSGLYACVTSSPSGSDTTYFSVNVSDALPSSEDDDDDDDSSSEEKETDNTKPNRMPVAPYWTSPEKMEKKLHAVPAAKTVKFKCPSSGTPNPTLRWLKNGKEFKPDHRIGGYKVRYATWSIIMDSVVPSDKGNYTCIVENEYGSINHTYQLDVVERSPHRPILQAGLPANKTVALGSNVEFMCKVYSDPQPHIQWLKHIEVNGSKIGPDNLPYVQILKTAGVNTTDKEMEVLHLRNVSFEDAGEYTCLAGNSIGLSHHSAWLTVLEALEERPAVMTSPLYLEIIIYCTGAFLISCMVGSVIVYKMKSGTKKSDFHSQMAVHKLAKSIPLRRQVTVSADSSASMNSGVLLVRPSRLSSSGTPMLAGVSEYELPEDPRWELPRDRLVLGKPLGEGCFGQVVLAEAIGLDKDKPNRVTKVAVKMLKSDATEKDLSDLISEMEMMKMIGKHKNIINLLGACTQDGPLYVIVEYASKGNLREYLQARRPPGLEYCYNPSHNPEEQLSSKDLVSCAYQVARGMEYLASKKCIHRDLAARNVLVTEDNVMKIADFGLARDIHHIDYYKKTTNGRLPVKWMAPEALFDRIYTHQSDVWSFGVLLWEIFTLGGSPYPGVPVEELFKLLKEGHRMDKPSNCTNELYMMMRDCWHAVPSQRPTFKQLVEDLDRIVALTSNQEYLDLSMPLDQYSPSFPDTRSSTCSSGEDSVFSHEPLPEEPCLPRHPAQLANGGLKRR
Chain of EPHB2 (P29323 whole entry, looked up): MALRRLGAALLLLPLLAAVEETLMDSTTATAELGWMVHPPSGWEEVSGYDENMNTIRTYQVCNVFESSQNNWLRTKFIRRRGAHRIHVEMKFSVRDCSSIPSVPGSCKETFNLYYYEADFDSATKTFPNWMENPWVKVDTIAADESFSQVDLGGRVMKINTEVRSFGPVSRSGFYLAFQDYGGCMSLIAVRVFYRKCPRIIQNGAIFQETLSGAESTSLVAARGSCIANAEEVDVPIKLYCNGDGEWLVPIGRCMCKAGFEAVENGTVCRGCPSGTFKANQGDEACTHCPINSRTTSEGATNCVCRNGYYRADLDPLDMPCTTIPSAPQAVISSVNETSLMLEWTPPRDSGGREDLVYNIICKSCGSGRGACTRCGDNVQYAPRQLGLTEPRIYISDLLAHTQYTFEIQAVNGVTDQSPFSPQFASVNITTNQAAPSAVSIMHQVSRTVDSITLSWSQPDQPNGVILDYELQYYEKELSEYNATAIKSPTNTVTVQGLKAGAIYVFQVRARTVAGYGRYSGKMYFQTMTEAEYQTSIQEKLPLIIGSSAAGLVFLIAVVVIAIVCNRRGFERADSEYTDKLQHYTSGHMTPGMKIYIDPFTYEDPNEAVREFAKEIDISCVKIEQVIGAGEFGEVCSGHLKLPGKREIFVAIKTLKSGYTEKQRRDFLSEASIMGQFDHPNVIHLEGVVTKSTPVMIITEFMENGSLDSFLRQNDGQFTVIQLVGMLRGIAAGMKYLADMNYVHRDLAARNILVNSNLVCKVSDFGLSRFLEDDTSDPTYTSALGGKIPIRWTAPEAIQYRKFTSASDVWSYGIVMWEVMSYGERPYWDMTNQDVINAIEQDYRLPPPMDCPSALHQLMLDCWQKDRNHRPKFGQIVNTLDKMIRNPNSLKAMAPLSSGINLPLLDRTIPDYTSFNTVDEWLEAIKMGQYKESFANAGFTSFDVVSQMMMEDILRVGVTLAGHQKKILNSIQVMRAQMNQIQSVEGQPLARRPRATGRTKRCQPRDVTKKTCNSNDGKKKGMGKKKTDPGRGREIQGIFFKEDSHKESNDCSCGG
Chain of FGFR3 (P22607 whole entry, looked up): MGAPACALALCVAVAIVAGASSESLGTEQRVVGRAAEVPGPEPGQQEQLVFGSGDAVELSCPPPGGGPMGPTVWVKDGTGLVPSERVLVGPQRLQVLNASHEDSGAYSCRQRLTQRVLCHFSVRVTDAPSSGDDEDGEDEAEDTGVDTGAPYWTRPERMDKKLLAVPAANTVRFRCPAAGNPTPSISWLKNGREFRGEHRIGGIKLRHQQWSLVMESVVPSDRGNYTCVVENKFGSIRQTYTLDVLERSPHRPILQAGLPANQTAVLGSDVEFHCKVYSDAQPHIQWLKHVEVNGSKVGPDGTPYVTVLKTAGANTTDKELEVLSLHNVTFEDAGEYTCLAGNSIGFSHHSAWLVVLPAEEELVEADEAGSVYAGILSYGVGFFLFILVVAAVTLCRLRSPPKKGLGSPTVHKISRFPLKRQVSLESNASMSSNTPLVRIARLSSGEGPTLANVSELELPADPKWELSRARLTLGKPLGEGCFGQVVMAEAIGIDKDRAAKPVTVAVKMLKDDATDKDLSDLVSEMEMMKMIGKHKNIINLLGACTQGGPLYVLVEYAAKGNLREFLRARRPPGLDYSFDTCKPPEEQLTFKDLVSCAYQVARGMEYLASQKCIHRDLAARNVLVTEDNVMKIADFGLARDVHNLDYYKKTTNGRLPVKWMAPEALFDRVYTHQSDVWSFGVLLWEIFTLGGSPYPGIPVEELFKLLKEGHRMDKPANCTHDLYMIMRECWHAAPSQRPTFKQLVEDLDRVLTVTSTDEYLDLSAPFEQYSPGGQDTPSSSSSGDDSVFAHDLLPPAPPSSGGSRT
Chain of MERTK (Q12866 whole entry, looked up): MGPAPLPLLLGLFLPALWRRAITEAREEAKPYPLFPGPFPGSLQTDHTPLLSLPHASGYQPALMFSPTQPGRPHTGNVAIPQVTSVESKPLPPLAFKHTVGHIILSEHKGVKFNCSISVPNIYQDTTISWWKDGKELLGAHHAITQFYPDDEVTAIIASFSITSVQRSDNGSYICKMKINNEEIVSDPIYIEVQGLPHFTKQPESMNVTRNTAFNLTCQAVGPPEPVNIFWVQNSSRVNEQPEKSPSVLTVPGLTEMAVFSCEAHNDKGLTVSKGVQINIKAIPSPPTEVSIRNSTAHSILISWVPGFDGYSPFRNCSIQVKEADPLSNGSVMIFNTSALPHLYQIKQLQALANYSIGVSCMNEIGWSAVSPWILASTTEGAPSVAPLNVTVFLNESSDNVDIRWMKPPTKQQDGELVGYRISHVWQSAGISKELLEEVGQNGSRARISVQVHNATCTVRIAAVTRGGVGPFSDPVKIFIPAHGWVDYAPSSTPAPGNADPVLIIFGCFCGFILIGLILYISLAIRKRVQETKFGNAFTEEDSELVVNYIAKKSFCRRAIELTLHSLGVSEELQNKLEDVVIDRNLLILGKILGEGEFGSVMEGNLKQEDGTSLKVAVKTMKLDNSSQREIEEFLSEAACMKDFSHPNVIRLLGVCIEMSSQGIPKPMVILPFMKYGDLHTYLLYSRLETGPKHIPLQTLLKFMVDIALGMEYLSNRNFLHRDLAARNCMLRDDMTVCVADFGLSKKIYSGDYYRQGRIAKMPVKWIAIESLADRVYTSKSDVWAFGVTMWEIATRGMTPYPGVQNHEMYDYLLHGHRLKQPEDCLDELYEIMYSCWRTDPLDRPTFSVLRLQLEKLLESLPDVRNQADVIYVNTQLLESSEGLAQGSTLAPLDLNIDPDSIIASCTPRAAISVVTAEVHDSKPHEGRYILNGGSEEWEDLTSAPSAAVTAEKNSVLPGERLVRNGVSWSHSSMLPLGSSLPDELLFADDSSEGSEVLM
Chain of Hck (P08631 whole entry, looked up): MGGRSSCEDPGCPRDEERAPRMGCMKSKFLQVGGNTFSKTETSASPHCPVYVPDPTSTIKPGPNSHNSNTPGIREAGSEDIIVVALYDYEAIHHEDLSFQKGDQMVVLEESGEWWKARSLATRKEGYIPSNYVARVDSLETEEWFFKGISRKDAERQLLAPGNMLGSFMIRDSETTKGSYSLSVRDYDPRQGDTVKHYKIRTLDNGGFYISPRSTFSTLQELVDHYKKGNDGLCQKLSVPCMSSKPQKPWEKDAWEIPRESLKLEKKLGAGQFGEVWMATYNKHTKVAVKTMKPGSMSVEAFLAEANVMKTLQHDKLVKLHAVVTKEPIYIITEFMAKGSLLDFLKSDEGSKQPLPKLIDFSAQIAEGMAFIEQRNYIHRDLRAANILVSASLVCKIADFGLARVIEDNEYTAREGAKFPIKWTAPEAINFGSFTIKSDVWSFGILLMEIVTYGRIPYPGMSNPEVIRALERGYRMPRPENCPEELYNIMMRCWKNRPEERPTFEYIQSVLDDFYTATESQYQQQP
Chain of Fyn (P06241 whole entry, looked up): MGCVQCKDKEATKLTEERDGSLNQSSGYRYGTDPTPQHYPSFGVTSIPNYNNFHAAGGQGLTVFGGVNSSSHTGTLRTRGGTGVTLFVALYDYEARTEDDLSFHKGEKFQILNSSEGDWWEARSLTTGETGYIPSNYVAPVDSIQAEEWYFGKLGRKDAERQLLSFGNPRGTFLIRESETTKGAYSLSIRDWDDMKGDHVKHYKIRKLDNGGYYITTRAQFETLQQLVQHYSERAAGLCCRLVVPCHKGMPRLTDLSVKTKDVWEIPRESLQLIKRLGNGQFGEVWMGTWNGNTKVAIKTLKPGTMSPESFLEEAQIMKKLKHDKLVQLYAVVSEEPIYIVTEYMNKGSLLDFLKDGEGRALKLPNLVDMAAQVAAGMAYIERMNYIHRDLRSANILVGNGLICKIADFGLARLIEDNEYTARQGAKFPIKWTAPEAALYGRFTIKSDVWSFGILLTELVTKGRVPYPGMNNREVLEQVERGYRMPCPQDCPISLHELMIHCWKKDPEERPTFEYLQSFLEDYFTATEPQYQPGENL

Sequence | SH2 binding enrichment (SHP2-C SH2) | SH2 binding enrichment (c-Src SH2) | SH2 binding enrichment (Grb2 SH2) | phosphorylation enrichment (c-Src) | phosphorylation enrichment (FGFR1) | phosphorylation enrichment (Fyn) | phosphorylation enrichment (c-Abl (mouse)) | phosphorylation enrichment (AncSZ) | phosphorylation enrichment (EPHB1) | phosphorylation enrichment (Fer (mouse)) | phosphorylation enrichment (MERTK) | phosphorylation enrichment (FGFR3) | phosphorylation enrichment (EPHB2) | phosphorylation enrichment (Jak2) | phosphorylation enrichment (Hck) | phosphorylation enrichment (Fes)
IRCQGYSHRIL [MYO3B_Y993_R990C] | 0.915 | 0.824 | 0.925 | 0.523 | 0.423 | 0.493 | 0.493 | 0.723 | 0.46 | 0.47 | 0.471 | 0.506 | 0.558 | 0.649 | 0.475 | 0.664
IRSGIYFKPES [L2HGDH_Y102_H98R_YF] | 1.13 | 0.642 | 0.776 | 0.673 | 0.542 | 0.768 | 2.88 | 0.913 | 0.63 | 0.467 | 4.3 | 0.625 | 0.687 | 1.19 | 0.786 | 0.95
ISRDVYSTDYY [NTRK2_Y702_M697I] | 0.719 | 0.543 | 0.745 | 4.67 | 4.9 | 3.34 | 0.69 | 1.83 | 2.43 | 0.703 | 6.57 | 3.13 | 2.51 | 1.12 | 1.95 | 1.04
ITGNGYFFRVF [MYBPC3_Y1135_I1131T_YF] | 0.735 | 0.457 | 0.75 | 0.31 | 0.451 | 0.358 | 0.647 | 0.906 | 0.496 | 0.416 | 0.305 | 0.595 | 0.493 | 0.99 | 0.377 | 1.08
IVAREYYSEAD [CAMK2A_Y106] | 0.645 | 3.2 | 0.886 | 0.548 | 0.618 | 0.474 | 0.664 | 1.03 | 0.557 | 0.586 | 0.455 | 0.81 | 0.552 | 1.01 | 0.557 | 1.2
IWIFHYAKGQP [MPZ_Y82_S78W] | 1.55 | 0.795 | 1.18 | 0.577 | 0.348 | 0.49 | 1.09 | 1.26 | 0.578 | 0.459 | 0.446 | 0.768 | 0.498 | 1.28 | 0.411 | 1.55
IYETDYYQKGG [INSR_Y1189_R1191Q] | 0.442 | 0.773 | 0.915 | 1.37 | 1.52 | 1.46 | 0.629 | 1.88 | 1.2 | 1.6 | 4.71 | 1.46 | 0.948 | 0.819 | 1.37 | 1.08
KDFNKYVAYIE [KDM4B_Y31] | 1.14 | 0.927 | 0.83 | 0.364 | 0.375 | 0.365 | 0.483 | 0.718 | 0.461 | 0.359 | 0.379 | 0.53 | 0.449 | 0.603 | 0.485 | 0.767
KDHRDYKFQPR [SOX9_Y172_P170R_YF] | 1.04 | 0.947 | 1.19 | 0.423 | 0.462 | 0.49 | 0.683 | 0.543 | 0.426 | 0.388 | 0.583 | 0.471 | 0.346 | 0.51 | 0.421 | 0.586
KDLPNYNWKSF [KISS1_Y112_N115K] | 0.475 | 0.38 | 0.664 | 0.588 | 0.418 | 0.438 | 0.72 | 0.655 | 0.532 | 0.464 | 0.455 | 0.598 | 0.529 | 0.918 | 0.439 | 0.865
KDQGGYAMHQD [MAPT_Y29_T30A] | 0.399 | 0.485 | 0.805 | 0.487 | 0.329 | 0.392 | 0.557 | 0.677 | 0.406 | 0.419 | 0.426 | 0.574 | 0.476 | 0.528 | 0.471 | 0.798
KDYETYQSFQN [CTNND2_Y1157_P1159S] | 0.712 | 0.533 | 0.981 | 4.92 | 0.551 | 6.69 | 0.875 | 1.33 | 7.69 | 0.651 | 0.427 | 0.691 | 8.93 | 1.03 | 5.74 | 1.03
KEDSVYGSQSV [NFKB2_Y868_A867V] | 0.554 | 0.389 | 1.03 | 1.35 | 0.353 | 1.43 | 0.608 | 0.829 | 0.449 | 0.498 | 0.399 | 0.557 | 0.41 | 0.794 | 0.984 | 0.946
KELAPYDENCF [RPS19_Y48_W52C] | 0.803 | 1.32 | 1.24 | 0.612 | 0.573 | 0.583 | 0.997 | 1.32 | 0.628 | 0.632 | 0.487 | 0.902 | 0.696 | 1.31 | 0.57 | 1.48
KERNQYGGVMV [MMP21_Y347_E349G] | 0.854 | 0.525 | 0.74 | 0.507 | 0.418 | 0.556 | 0.44 | 0.534 | 0.361 | 0.474 | 0.394 | 0.475 | 0.394 | 0.425 | 0.474 | 0.594
KFEDVYVGICL [B3GALNT1_Y269] | 0.41 | 0.458 | 0.647 | 2.92 | 1.23 | 3.06 | 1.02 | 1.37 | 0.857 | 2.52 | 0.592 | 1.24 | 0.715 | 1.16 | 1.99 | 1.33
KFMVGYEMLAQ [GALT_Y339] | 0.892 | 3.23 | 1.33 | 0.382 | 0.553 | 0.417 | 0.622 | 0.88 | 0.519 | 0.511 | 0.343 | 0.697 | 0.504 | 0.833 | 0.526 | 0.897

Sequence | SH2 binding enrichment (SHP2-C SH2) | SH2 binding enrichment (c-Src SH2) | SH2 binding enrichment (Grb2 SH2) | phosphorylation enrichment (c-Src) | phosphorylation enrichment (FGFR1) | phosphorylation enrichment (Fyn) | phosphorylation enrichment (c-Abl (mouse)) | phosphorylation enrichment (AncSZ) | phosphorylation enrichment (EPHB1) | phosphorylation enrichment (Fer (mouse)) | phosphorylation enrichment (MERTK) | phosphorylation enrichment (FGFR3) | phosphorylation enrichment (EPHB2) | phosphorylation enrichment (Jak2) | phosphorylation enrichment (Hck) | phosphorylation enrichment (Fes)
KFVVVYFRETD [IL17RB_Y447_I451T_YF] | 1.55 | 1.33 | 2.19 | 0.377 | 0.512 | 0.463 | 0.734 | 1.36 | 0.637 | 0.484 | 0.417 | 0.734 | 0.597 | 1.11 | 0.57 | 1.23
KGEDFYCVTRH [FHL1_Y149_C153R] | 0.694 | 0.357 | 0.766 | 0.794 | 0.498 | 0.633 | 0.835 | 1.22 | 0.592 | 0.662 | 0.82 | 0.715 | 0.558 | 1 | 0.808 | 1.2
KGELRYMHSRV [ABCD1_Y281] | 1.33 | 1.27 | 1.38 | 0.48 | 0.428 | 0.303 | 0.517 | 0.568 | 0.396 | 0.375 | 0.378 | 0.44 | 0.348 | 0.618 | 0.377 | 0.746
KGFRGYSFDDI [TMEM230_Y110_YF] | 0.678 | 0.453 | 0.863 | 0.452 | 0.41 | 0.402 | 0.551 | 0.824 | 0.495 | 0.409 | 0.375 | 0.501 | 0.541 | 0.835 | 0.412 | 0.798
KGKLIYLLRDS [NXPE1_Y350_G353R] | 3.18 | 1.75 | 2.45 | 0.516 | 0.428 | 0.49 | 0.666 | 0.719 | 0.455 | 0.492 | 0.443 | 0.599 | 0.447 | 0.692 | 0.599 | 0.964
KHCEDYVCSYN [DSC1_Y846] | 0.874 | 1.05 | 0.913 | 1.36 | 0.627 | 0.502 | 0.771 | 1.14 | 0.63 | 0.506 | 0.398 | 0.662 | 0.578 | 0.93 | 0.555 | 1.23
KIIRRYVSSEG [ANK2_Y3907] | 0.533 | 0.421 | 0.637 | 0.458 | 0.384 | 0.41 | 0.416 | 0.509 | 0.321 | 0.365 | 0.351 | 0.34 | 0.358 | 0.531 | 0.371 | 0.479
KILTHYKQPHT [KMT2D_Y5349_R5351Q] | 0.998 | 0.907 | 1.05 | 0.416 | 0.437 | 0.478 | 1.18 | 0.763 | 0.364 | 0.384 | 0.506 | 0.412 | 0.403 | 0.726 | 0.46 | 0.565
KKCTRYIDCAL [ASPA_Y64_D68A] | 0.806 | 0.709 | 0.836 | 0.371 | 0.394 | 0.336 | 0.55 | 0.684 | 0.374 | 0.418 | 0.338 | 0.568 | 0.394 | 0.595 | 0.356 | 0.755
KKHFSYAWPFF [BRDT_Y291_YF] | 2.15 | 1.77 | 1.8 | 0.529 | 0.545 | 0.428 | 0.661 | 1.03 | 0.467 | 0.487 | 1.64 | 0.653 | 0.494 | 0.976 | 0.428 | 1.13
KKLHKYNTQFQ [PIK3R1_Y452_E451K] | 1.67 | 1.24 | 1.42 | 0.416 | 0.496 | 0.355 | 1.06 | 0.577 | 0.511 | 0.503 | 0.487 | 1.13 | 0.46 | 1.55 | 0.425 | 0.909
KKRSVYLKVLF [CC2D2A_Y683] | 0.983 | 0.679 | 0.869 | 0.391 | 0.494 | 0.446 | 0.706 | 1.01 | 0.453 | 0.478 | 0.361 | 0.721 | 0.543 | 0.897 | 0.401 | 1.19
KLKRSYCSPDI [USP8_Y717_S718C] | 0.907 | 0.785 | 0.931 | 0.433 | 0.415 | 0.401 | 0.534 | 0.538 | 0.36 | 0.318 | 0.459 | 0.534 | 0.37 | 0.648 | 0.393 | 0.712
KLKRSYSSRDI [USP8_Y717_P720R] | 0.651 | 0.531 | 1.13 | 0.458 | 0.289 | 0.329 | 0.51 | 0.45 | 0.351 | 0.371 | 0.432 | 0.368 | 0.409 | 0.51 | 0.327 | 0.464
KMGNEYVTKGQ [MYH7_Y410_V406M] | 0.576 | 0.408 | 0.713 | 0.344 | 0.375 | 0.358 | 0.326 | 0.447 | 0.367 | 0.385 | 0.374 | 0.447 | 0.353 | 0.418 | 0.451 | 0.523
KMKGDYYCYLA [YWHAG_Y130_R132C] | 0.836 | 0.837 | 0.743 | 1.78 | 11 | 1.38 | 1.57 | 2.32 | 4.58 | 0.895 | 6.74 | 9.02 | 4.35 | 3.93 | 1.58 | 1.24

Source: the supplement of paper PMC10065799, “High-throughput profiling of sequence recognition by tyrosine kinases and SH2 domains using bacterial peptide display” (eLife, 2023)
